Test results published in article PMC12724371 (Journal of Virology, 2025).

How the values were obtained:
Assay in all cases: BLI
Settings in all cases: both partners purified
[1] = target: T1, HKU-1 full-length spike protein (HCoV-HKU1, UniProt Q0ZME7)
T1 construct: also called HKU1 SP; HCoV-HKU1 full-length SP; source: bought: Sino Biological

[2] = target: T2, SARS-CoV-2 spike S2 subunit (SARS-CoV-2, Wuhan-Hu-1 reference, UniProt P0DTC2)
T2 construct: source: bought: Sino Biological

[3] = target: SARS-CoV full-length spike protein (SARS-CoV, strain  (entry …, UniProt P59594))
MERS spike S2 subunit = target: T3, MERS spike S2 subunit (MERS-CoV, strain  (entry: …, UniProt K9N5Q8))
T3 construct: source: bought: Sino Biological

[4] = target: MERS full-length spike protein (MERS-CoV, strain  (entry: …, UniProt K9N5Q8))
[5] = target: RatG13 full-length spike protein (Bat coronavirus RaTG13, UniProt A0ABF7PLN6)
[6] = target: T4, OC-43 full-length spike protein (HCoV-OC43, UniProt P36334)
T4 construct: source: bought: Sino Biological

[7] = target: T5, SARS-CoV spike S2 subunit (SARS-CoV, strain  (entry …, UniProt P59594))
T5 construct: source: bought: Sino Biological

Measured: binding result

T1 sequence (Q0ZME7 13-1351): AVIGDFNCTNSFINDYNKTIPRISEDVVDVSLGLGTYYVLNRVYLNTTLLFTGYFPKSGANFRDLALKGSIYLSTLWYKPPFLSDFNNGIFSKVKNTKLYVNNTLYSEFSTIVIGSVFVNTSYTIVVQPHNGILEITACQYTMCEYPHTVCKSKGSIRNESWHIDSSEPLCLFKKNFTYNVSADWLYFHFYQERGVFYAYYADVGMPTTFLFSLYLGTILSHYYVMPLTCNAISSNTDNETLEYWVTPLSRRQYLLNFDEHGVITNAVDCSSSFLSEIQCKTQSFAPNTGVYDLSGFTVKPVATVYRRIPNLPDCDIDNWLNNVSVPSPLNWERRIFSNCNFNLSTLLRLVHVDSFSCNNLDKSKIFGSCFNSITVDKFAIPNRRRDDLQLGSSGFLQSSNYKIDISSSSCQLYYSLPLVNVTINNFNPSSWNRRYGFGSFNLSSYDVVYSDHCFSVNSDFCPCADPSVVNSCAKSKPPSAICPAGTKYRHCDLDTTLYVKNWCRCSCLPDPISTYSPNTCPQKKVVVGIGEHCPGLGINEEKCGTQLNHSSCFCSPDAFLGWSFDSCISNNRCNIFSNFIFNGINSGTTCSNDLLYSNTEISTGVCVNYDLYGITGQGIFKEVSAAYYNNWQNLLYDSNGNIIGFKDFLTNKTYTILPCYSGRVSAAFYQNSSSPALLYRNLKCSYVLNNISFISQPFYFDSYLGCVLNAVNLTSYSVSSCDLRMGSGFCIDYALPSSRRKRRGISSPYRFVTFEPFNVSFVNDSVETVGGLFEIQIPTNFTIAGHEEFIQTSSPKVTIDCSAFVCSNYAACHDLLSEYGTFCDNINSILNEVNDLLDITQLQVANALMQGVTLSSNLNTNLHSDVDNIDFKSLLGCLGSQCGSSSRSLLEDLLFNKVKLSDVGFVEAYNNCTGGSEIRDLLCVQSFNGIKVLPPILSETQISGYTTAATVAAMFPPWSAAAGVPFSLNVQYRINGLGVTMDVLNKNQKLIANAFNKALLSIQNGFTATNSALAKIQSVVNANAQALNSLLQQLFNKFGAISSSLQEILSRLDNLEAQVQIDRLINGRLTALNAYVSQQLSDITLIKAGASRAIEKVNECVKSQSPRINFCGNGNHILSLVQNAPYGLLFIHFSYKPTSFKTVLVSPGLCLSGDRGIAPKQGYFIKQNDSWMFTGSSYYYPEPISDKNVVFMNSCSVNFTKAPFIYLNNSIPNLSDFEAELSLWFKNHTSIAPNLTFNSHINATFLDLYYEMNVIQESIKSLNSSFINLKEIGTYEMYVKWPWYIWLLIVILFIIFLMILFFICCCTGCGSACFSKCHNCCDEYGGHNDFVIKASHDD
T3 sequence (K9N5Q8 whole entry, looked up): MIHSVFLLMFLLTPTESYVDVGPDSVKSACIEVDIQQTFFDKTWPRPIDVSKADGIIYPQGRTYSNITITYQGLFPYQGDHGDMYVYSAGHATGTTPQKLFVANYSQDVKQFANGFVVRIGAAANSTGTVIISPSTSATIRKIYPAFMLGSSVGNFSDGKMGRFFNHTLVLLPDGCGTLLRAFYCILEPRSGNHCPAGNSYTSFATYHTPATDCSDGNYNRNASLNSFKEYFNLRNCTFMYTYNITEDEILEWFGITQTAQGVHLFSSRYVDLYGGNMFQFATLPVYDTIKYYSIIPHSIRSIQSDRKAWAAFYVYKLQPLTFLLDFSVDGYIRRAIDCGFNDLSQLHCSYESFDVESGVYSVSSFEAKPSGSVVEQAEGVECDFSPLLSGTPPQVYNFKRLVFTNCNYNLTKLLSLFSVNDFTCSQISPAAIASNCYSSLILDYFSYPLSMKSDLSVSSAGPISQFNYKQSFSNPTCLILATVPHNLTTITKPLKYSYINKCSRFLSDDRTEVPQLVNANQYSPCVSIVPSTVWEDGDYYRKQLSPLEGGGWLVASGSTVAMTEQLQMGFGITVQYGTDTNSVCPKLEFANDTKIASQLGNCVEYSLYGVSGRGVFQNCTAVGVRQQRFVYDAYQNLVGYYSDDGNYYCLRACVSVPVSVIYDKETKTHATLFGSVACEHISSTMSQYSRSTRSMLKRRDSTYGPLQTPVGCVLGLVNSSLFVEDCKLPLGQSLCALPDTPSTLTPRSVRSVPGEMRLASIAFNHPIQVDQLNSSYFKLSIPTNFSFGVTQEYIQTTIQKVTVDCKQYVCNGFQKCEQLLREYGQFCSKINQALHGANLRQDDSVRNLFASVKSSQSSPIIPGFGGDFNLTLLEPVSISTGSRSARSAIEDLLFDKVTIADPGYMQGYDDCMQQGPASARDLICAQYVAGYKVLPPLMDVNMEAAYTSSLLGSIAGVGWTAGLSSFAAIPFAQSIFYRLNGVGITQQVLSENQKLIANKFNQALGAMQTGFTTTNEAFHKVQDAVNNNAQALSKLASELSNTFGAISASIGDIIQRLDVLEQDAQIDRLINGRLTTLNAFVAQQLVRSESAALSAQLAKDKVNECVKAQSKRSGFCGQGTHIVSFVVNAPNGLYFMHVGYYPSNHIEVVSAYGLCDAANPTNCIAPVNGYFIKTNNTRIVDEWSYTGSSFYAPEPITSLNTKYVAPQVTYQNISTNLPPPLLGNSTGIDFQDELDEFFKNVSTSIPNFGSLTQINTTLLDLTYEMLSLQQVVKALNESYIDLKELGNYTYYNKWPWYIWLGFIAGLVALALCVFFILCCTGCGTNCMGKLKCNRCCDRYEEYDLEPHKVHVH
Chain of MERS full-length spike protein (MERS-CoV, strain  (K9N5Q8 18-1353): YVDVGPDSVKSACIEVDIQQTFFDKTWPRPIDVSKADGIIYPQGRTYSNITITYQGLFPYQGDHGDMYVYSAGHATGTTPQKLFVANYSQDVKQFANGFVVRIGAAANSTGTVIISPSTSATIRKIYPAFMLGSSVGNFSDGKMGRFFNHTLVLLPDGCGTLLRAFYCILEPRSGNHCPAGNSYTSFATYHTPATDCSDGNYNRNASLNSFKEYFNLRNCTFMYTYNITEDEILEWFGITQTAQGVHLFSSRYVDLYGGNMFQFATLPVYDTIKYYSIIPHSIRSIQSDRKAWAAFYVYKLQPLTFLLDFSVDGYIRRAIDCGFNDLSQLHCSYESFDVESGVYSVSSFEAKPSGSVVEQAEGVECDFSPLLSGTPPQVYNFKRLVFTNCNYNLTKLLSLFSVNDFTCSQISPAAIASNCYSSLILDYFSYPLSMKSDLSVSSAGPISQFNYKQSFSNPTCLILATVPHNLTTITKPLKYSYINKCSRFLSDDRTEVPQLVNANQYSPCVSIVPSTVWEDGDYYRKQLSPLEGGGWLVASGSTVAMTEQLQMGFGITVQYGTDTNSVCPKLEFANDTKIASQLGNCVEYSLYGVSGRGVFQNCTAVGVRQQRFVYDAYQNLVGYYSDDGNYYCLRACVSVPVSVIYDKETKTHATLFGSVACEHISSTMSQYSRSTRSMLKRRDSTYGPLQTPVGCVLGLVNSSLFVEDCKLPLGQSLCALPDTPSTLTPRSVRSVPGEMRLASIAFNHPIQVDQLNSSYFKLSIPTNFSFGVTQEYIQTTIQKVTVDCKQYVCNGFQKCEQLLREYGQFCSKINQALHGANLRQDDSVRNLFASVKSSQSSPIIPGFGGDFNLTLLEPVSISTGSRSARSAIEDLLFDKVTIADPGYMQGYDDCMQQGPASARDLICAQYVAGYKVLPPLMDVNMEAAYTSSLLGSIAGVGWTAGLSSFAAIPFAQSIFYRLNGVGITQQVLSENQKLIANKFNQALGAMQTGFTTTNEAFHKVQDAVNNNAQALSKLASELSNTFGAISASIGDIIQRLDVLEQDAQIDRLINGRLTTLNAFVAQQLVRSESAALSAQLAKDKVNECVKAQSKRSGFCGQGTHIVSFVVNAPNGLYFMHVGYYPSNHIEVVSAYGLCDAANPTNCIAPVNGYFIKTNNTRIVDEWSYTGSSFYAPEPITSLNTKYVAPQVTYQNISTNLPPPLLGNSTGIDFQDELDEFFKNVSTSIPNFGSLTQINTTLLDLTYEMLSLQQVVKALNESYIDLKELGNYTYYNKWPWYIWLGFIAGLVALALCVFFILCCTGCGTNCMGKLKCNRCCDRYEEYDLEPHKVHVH

B1: mAb 1871 IgG1 (wild-type human IgG1 Fc) (antibody, V domains shown)
VH: EVQLVESGGGLVKPGGSLRLSCVASGFSFSIYSMNWVRQAPGKGLEWVSYISSSSSYKYYADSVKGRFSVSRDNAKNSLYLQLNGLRAEDTAVYYCARDGYCPKGVCTYYGMDVWGQGTTVTVSA
VL: EIVMTQSPATLSVSPGERVTLSCRASQSVRSRLAWFQQKPGQAPRLLIYDASIRATGIPARFSGSGSGTEFTLIISSLQSEDFAVYYCQQYDNWPPAYTFGQGTKLEIK
notes: also called ADPT01871; source: HEK-293F, transiently transfected, purified (protein A, SEC Superdex200)
binds: [1] | [2] | [3] | MERS spike S2 subunit | [4] | [5] | [6] | [7]
